Source: patent publication US10434074B2, “Peptide and small molecule agonists of EPHA and uses thereof” (CASE WESTERN RESERVE UNIVERSITY, priority 2004, dated 2019)
Entries after “also recorded” stand apart in the source; their conditions may differ.

Key:
E-cadherin = E-cadherin immunoblot and immunofluorescence; format: cell-based, human
Method: FIGS. 5(A-E) illustrate (A) Ephrin-A1 co-stimulation inhibited the loss of E-cadherin induced by HGF/SF. DU-145 cells were treated as indicated for 24 or 48 hours. Cell lysates were subject to anti-E-cadherin immunoblot. Same membrane was stripped and blotted with anti-ERK1 as loading control. Relative intensity of E-cadherin=intensities of E-cadherin band/intensity of ERK band. (B) Immunofluorescent staining of E-cadherin after 24 hours of the indicated treatment. Note almost exclusive cytoplasmic staining pattern in HGF/SF treated cells, while cotreatment with ephrin-A1 restored significant levels of E-cadherin at cell-cell junction. (C) Ephrin-A1-Fc pre-treatment preserved E-cadherin expression in HGF/SF treated cells. DU-145 cells were pre-treated with Fc or ephrin-A1-Fc for 24 hours. HGF/SF was then added. The cells were cultured for another 24 hours and lysed for anti-E-cadherin immunoblot. Anti-ERK1 was used as loading control. (D) Cells grown on cover slips received same treatment as in C were subject to anti-E-cadherin immunofluorescence analysis. Note the significant preservation of E-cadherin localization at cell-cell adhesion site by ephrin-A1-Fc compared with Fc control. (E) Numbers of total cells and cells without contact with other cells were counted in 6-8 randomly chosen fields. * Fc/HGF/SF vs. ephrin-A1-Fc/HGF/SF: p=4.6×10^−7.
Cells were cultured on cover slips in 24-well dishes for 24 hours, fixed in 4% formaldehyde for 20 minutes and permeabilized with 0.5% NP-40 for 10 minutes. Blocking was performed using blocking solution containing 2% BSA and 2% goat serum in PBS. Subsequently, cells were incubated with 1 μg/ml anti-EphA2 or anti-E-cadherin antibody. A Texas Red-conjugated goat anti-rabbit IgG or FITC-conjugated rabbit anti-mouse IgG was used to visualize the primary antibodies. Vector-Shield mounting solution containing DAPI (Vector Laboratories) was used to mount the cover slips onto slides.
Cells cultured in 6 well plates at 70-80% confluence were stimulated with 0.5 μg/ml Fc, 1 μg/ml epnrinA1-Fc or 20 ng/ml HGF/SF or their combinations as indicated. After stimulation, cells were lysed in RIPA buffer (20 mM Tris, pH7.4, 125 mM NaCl, 20 mM NaF, 0.1% SDS, 10% glycerol, 0.5% sodium deoxycholate, and 1% TX-100, 0.5 mM Na3VO4) containing protease inhibitors (1 mM phenylmethylsulphonyl fluoride, and 2 μg/ml each of aprotinin and leupeptin). Cell lysates were clarified by centrifugation at 13,000 rpm for 5 min. Immunoprecipitation was carried out by adding anti-EphA2 antibody to clarified cell lysates and incubated for 1 hour at 4° C. The immunocomplex was captured using γ-bind beads (Pharmacia). Cell lysates or precipitated proteins were separated on 4-20% Tris-glycine gels (Invitrogen) and transferred to Immobilon-P PVDF membranes (Millipore). […] For quantitative analysis, band densities were measured using KODAK 1D imagine analysis software (Eastman Kodak Company).

EphA2 = EphA2 (Homo sapiens, UniProt P29317); assay: EphA2 activation and ERK status in DU-145 cells; format: cell-based; set-up: endogenous in cells; host or cells: DU-145 cells
Sequence of EphA2 (P29317 24-976): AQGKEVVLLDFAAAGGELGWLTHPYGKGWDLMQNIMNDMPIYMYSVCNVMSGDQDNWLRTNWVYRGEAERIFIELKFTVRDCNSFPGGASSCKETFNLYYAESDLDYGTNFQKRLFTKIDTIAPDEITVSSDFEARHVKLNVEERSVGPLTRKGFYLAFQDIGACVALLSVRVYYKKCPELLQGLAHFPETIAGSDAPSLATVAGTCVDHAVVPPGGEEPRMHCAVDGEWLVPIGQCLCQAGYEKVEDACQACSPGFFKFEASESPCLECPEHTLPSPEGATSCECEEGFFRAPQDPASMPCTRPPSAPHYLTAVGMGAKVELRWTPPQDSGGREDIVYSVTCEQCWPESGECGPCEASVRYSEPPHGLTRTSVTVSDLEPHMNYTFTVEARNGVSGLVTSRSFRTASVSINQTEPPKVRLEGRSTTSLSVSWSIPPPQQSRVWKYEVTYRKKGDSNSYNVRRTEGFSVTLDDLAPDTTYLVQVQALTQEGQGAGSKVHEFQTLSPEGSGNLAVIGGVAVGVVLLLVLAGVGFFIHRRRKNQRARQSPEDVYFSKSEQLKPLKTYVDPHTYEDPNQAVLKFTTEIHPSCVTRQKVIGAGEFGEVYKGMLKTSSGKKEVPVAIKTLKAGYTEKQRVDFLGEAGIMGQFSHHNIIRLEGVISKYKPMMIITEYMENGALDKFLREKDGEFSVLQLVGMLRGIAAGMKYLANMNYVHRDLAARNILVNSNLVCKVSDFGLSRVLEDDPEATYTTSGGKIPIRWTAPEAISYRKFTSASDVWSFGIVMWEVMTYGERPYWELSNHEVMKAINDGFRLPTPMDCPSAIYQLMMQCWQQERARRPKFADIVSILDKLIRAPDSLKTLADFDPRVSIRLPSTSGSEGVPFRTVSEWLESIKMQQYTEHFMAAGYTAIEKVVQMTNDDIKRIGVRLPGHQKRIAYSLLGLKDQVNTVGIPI
Method: FIGS. 1(A-D) illustrate (A) EphA2 is the primary EphA kinase expressed on human prostate cancer cells. Cell surface proteins were labeled with membrane impermeable biotin (Method). Top panel: Saturating amount of ephrin-A1-Fc (EA1-Fc) was used to precipitate most EphA kinases. Lower panel: EphA2 was first immunodepleted from cell lysates with an EphA2-specific antibody. Saturating amount of ephrin-A1-Fc was then added to the EphA2-depleted cell lysates to precipitate other members of EphA kinases. The precipitates were subject immunoblot with HRP-labeled avidin. (B) Expression of EphA2, but not other EphA kinases and ephrin-As, is elevated in cell lines derived from more malignant prostate cancer. Total cellular proteins were immunoblotted with the indicated antibodies. (C) Immunofluorescence staining of EphA2. Human prostate cancer cells grown on cover slip were stained with anti-EphA2 antibody. Texas-Red labeled secondary was used to visualize the bound primary antibody. […] To determine the ERK activation status, total cell lysates were analyzed by immunoblot using anti-phospho ERK (p-ERK) antibody. […]
Cells cultured in 6 well plates at 70-80% confluence were stimulated with 0.5 μg/ml Fc, 1 μg/ml epnrinA1-Fc or 20 ng/ml HGF/SF or their combinations as indicated. […] For quantitative analysis, band densities were measured using KODAK 1D imagine analysis software (Eastman Kodak Company).

B1: ephrin-A1-Fc: ephrin-A1 dimerized by fusion to the heavy chain of human IgG1 (protein)
chain: DRHTVFWNSSNPKFRNEDYTIHVQLNDYVDIICPHYEDHSVADAAMEQYILYLVEHEEYQLCQPQSKDQVRWQCNRPSAKHGPEKLSEKFQRFTPFTLGKEFKEGHSYYYISKPIHQHEDRCLRLKVTVSGKITHSPQAHDNPQEKRLAADDPEVRVLHSIGHS
modifications: left off: a dimerising Fc or GST
notes: ephrin-A1 dimerized by fusion to the heavy chain of human IgG1
- total E-cadherin, 24 hours pretreatment before HGF/SF (E-cadherin; immunoblot): significantly prevented HGF/SF-induced down-regulation of total cellular E-cadherin
- total E-cadherin on co-treatment with HGF/SF (E-cadherin; immunoblot, 24 or 48 hours): significantly preserved
- E-cadherin at cell-cell junction, 24 hours pretreatment before HGF/SF (E-cadherin; immunofluorescence): significant fraction of E-cadherin was retained at cell-cell junction
- E-cadherin at cell-cell junctions on co-treatment with HGF/SF (E-cadherin; immunofluorescence): dramatically retained
- E-cadherin expression (E-cadherin; ligand alone vs Fc, immunoblot): moderately increased E-cadherin expression; also recorded: increased E-cadherin expression at 48 hours
- ERK1/2 activity (EphA2): reduced
- EphA2 activation, time course (EphA2): readily occurred in two minutes
